Assay results: patent US20200407436A1 (published 2020)

Tests used:
[1] = target: T1, mature human TGF-beta 2 (human, UniProt P61812 303-414); assay: cell-based or functional assay
T1 sequence: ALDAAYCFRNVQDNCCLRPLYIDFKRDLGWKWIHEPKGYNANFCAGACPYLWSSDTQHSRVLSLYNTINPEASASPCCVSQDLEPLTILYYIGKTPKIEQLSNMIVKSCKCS

[2] = target: mature human TGF-beta 1 (human, UniProt P01137 279-390); assay: cell-based or functional assay
[3] = target: T2, mature human TGF-beta 3 (human, UniProt P10600 301-412); assay: cell-based or functional assay
T2 sequence: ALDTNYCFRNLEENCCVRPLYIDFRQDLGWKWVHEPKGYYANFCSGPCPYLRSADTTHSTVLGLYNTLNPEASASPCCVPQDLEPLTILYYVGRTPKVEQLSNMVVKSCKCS

[4] = target: endogenously produced TGF-beta in the RPTEC and HRF co-culture system; assay: cell-based or functional assay
[5] = target: T1, mature human TGF-beta 2; assay: SPR Biacore T200, human TGF-beta amine-coupled (~20 RU), E. coli derived Fab as analyte; heterogeneous fit, component 2 (kd2; believed unoccluded)
Experimental: (§1) Human TGF-β isoforms 1, 2, and 3 (Peprotech) were immobilised on CMS Series S chip via amine coupling chemistry on Flowcell 2, 3 and 4 (respectively) to a level of approximately 20 RU. HBS-EP buffer (10 mM HEPES pH 7.4, 0.15 M NaCl, 3 mM EDTA, 0.05% Surfactant P20, GE Healthcare) was used as the running buffer. […] The surface was regenerated by 2×10 μL injection of 10 mM HCl at a flowrate of 10 uL/min.
(§2) Background subtraction binding curves were analysed using the T200 evaluation software (version 1.0; GE Healthcare) following standard procedures. Kinetic parameters were determined using heterogeneous fitting algorithm with RI=0), as described in Example 3, and the values are provided in Table 4.

[6] = target: T2, mature human TGF-beta 3; assay: as above
Experimental: as §1, §2

Chain of mature human TGF-beta 1 (P01137 279-390 limits assumed): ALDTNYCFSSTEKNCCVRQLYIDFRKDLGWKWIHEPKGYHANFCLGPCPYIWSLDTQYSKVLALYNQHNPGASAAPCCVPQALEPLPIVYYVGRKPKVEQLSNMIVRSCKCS

B1: humanised antibody 4856 Fab graft gL3gH13 (Fab, V domains shown)
VH: EVQLVESGGGLVKPGGSLRLSCAASGFSLSSYDMSWVRQAPGKGLEWIGIIYGGSGSTWYASWAKGRFTISRDSAKNSVYLQMNSLRAEDTAVYYCARGRDAGAGGSRNGYSLWGQGTLVTVSS
VL: AYDMTQSPSTLSASVGDRVTITCQASESIYSGLAWYQQKPGKAPKLLIYAASDLASGVPSRFSGSGSGTEYTLTISSLQPDDFATYYCQQTWTDGGIDNPFGGGTKVEIKR
notes: Human gamma-1 CH1 (G1m17) and human C-kappa (K1m3); also called 4856gL3gH13
[1]
  Geo Mean IC50, Collagen I &III deposition, RPTEC mono-culture + TGFB2: 0.3 nM
  Geo Mean IC50, Collagen V deposition, RPTEC mono-culture + TGFB2: 3.1 nM
  Geo Mean IC50, Fibronectin deposition, RPTEC mono-culture + TGFB2: 0.3 nM
  IC50 (N = 1), Collagen I &III deposition, RPTEC mono-culture + TGFB2: < 2 nM
  IC50 (N = 1), Collagen V deposition, RPTEC mono-culture + TGFB2: 0.52 nM
  IC50 (N = 1), Fibronectin deposition, RPTEC mono-culture + TGFB2: 0.16 nM
  IC50 (N = 2), Collagen I &III deposition, RPTEC mono-culture + TGFB2: 0.6 nM
  IC50 (N = 2), Collagen V deposition, RPTEC mono-culture + TGFB2: 10.5 nM
  IC50 (N = 2), Fibronectin deposition, RPTEC mono-culture + TGFB2: 0.76 nM
  IC50 (N = 3), Collagen I &III deposition, RPTEC mono-culture + TGFB2: 0.13 nM
  IC50 (N = 3), Collagen V deposition, RPTEC mono-culture + TGFB2: 5.29 nM
  IC50 (N = 3), Fibronectin deposition, RPTEC mono-culture + TGFB2: 0.22 nM
[2]
  Geo Mean IC50, Collagen I &III deposition, RPTEC mono-culture + TGFB1: 11.2 nM
  Geo Mean IC50, Collagen V deposition, RPTEC mono-culture + TGFB1: 43.7 nM
  Geo Mean IC50, Fibronectin deposition, RPTEC mono-culture + TGFB1: 19.2 nM
  IC50 (N = 1), Collagen I &III deposition, RPTEC mono-culture + TGFB1: 5.1 nM
  IC50 (N = 1), Collagen V deposition, RPTEC mono-culture + TGFB1: 13.1 nM
  IC50 (N = 1), Fibronectin deposition, RPTEC mono-culture + TGFB1: 12.6 nM
  IC50 (N = 2), Collagen I &III deposition, RPTEC mono-culture + TGFB1: 13.8 nM
  IC50 (N = 2), Collagen V deposition, RPTEC mono-culture + TGFB1: 92.1 nM
  IC50 (N = 2), Fibronectin deposition, RPTEC mono-culture + TGFB1: 57.4 nM
  IC50 (N = 3), Collagen I &III deposition, RPTEC mono-culture + TGFB1: 19.8 nM
  IC50 (N = 3), Collagen V deposition, RPTEC mono-culture + TGFB1: 69.4 nM
  IC50 (N = 3), Fibronectin deposition, RPTEC mono-culture + TGFB1: 9.8 nM
[3]
  Geo Mean IC50, Collagen I &III deposition, RPTEC mono-culture + TGFB3: 81.2 nM
  Geo Mean IC50, Collagen V deposition, RPTEC mono-culture + TGFB3: 191 nM
  Geo Mean IC50, Fibronectin deposition, RPTEC mono-culture + TGFB3: 82.1 nM
  IC50 (N = 1), Collagen I &III deposition, RPTEC mono-culture + TGFB3: 64.3 nM
  IC50 (N = 1), Collagen V deposition, RPTEC mono-culture + TGFB3: 141 nM
  IC50 (N = 1), Fibronectin deposition, RPTEC mono-culture + TGFB3: 51.5 nM
  IC50 (N = 2), Collagen I &III deposition, RPTEC mono-culture + TGFB3: 124 nM
  IC50 (N = 2), Collagen V deposition, RPTEC mono-culture + TGFB3: 336 nM
  IC50 (N = 2), Fibronectin deposition, RPTEC mono-culture + TGFB3: 140 nM
  IC50 (N = 3), Collagen I &III deposition, RPTEC mono-culture + TGFB3: 67.2 nM
  IC50 (N = 3), Collagen V deposition, RPTEC mono-culture + TGFB3: 147 nM
  IC50 (N = 3), Fibronectin deposition, RPTEC mono-culture + TGFB3: 76.8 nM
[4]
  Geo Mean IC50, Collagen I &III deposition, RPTEC and HRF co-culture: 32.8 nM
  Geo Mean IC50, Collagen V deposition, RPTEC and HRF co-culture: 56.3 nM
  Geo Mean IC50, Fibronectin deposition, RPTEC and HRF co-culture: 29.7 nM
  IC50 (N = 1), Collagen I &III deposition, RPTEC and HRF co-culture: 22.4 nM
  IC50 (N = 1), Collagen V deposition, RPTEC and HRF co-culture: 38.9 nM
  IC50 (N = 1), Fibronectin deposition, RPTEC and HRF co-culture: 32.6 nM
  IC50 (N = 2), Collagen I &III deposition, RPTEC and HRF co-culture: 48 nM
  IC50 (N = 2), Collagen V deposition, RPTEC and HRF co-culture: 81.6 nM
  IC50 (N = 2), Fibronectin deposition, RPTEC and HRF co-culture: 27.1 nM
[5]
  koff: 0.00017 s⁻¹
[6]
  koff: 0.00339 s⁻¹
